Data taken from patent EP4669352A1.
Read-outs that look alike come from different tables or passages of the source.

B1: MV49 (antibody, V domains shown)
VH: QVQLQESGGGLVQPGGSLRLSCAASGFTFSNSWMNWVRQAPGKGPEWVARIKRKADGETADYAASVKGRFAVSRDDSKNTLYLQINSLKSEDTAVYYCTTVPPLYDLFYRGAYYFDSWGQGVLITVSS
VL: QPVLTQPPSVSGSPGQSVTISCTGTSSDIGGYKYVSWYQQHPGTAPKLMIYEVNKRPSGVSDRFSGSKSGNTASLTISGLQAEDEADYYCSAYSTSRTYIFGPGTRVTVL
B2: MV33 (antibody, V domains shown)
VH: EAQLVESGGGLVHPGGSLRLSCEVSGFTFSNSWMNWVRQAPGKGLECVARIIRNADGETADYAASVRGRFTISRDDPENTLYLRMKSLKTEDTAVYYCTTVPPLSHLFFHETYYFDYWGQGVLVTVSS
VL: QAARTQSPSMSASPGQSVTISCTGTRNDIGGYNYVSWYQQYPGKAPKLMIYDVSKRPSGVSDRFSGSKSGNTASLTISGLQAEDEANYYCSSYAGSNTYVFGSGTKLTIL

What was measured:
[1] = molecular target: D8 protein (vaccinia virus)
[2] = molecular target: D8 protein (vaccinia virus); test: BLI (Octet)
[3] = molecular target: D8 protein (vaccinia virus); remark: listed apart in the source

| Binder | Kd [1] [nM] | Kd [2] [nM] | koff [3] [s⁻¹] |
| --- | --- | --- | --- |
| B1 | 0.011 | – | – |
| B2 | – | < 0.001 | < 1e-07 |
